According to patent US20140322825A1 (UNIVERSITY OF MARYLAND BALTIMORE, published 2014):
Positions count from the first letter of the chain named. Each block holds one binder with its values, some of them ahead of it.

Assays:
[1] = target: T1, asialo-glycophorin A (aGPA) (human, UniProt P02724 20-150, desialylated by mild acid treatment; carries O-linked TFα (Galβ1-3GalNAcα) structures; biotinylated in the flow cytometry assays); experiment: SPR (Biacore T200), lambody captured via anti-His mAb, aGPA as analyte, 1:1 Langmuir fit
T1 construct: The lambody recognises the glycans on this glycoprotein; also called asialo-GPA
T1 sequence (looked up): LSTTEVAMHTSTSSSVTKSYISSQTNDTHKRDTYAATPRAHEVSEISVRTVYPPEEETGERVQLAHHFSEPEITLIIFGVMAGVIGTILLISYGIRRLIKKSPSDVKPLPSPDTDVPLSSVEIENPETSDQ
Experimental: All SPR binding experiments were performed using Biacore T200 (GE Healthcare). The running and sample buffer was HBS-EP+ (10 mM HEPES, pH 7.4, 150 mM NaCl, 3 mM EDTA, 0.05% Polysorbate 20). All measurements were performed at 25° C. Anti-His antibody (His capture kit, GE Healthcare) was immobilized by amine coupling to Sensor Chip CM5. […] Regeneration of the anti-His surface was accomplished using a 60 second injection of 10 mM glycine-HCl pH 1.5. The reference subtracted SPR binding curves were blank subtracted, and curve fitting was performed with a 1:1 model to obtain kinetic parameters using the Biacore T200 Evaluation software.

[2] = target: T1, asialo-glycophorin A (aGPA); experiment: SPR (Biacore T200), lambody captured by anti-His mAb, aGPA as analyte at 312 pM to 20 nM, 1:1 Langmuir fit
Experimental: Reference subtracted and blank subtracted binding data were fitted with a 1:1 Langmuir binding model to determine the association and dissociation constants. The equilibrium dissociation constants were calculated from these values.
(§1) All SPR binding experiments were performed using Biacore T200 (GE Healthcare). The running and sample buffer was HBS-EP+ (10 mM HEPES, pH 7.4, 150 mM NaCl, 3 mM EDTA, 0.05% Polysorbate 20). All measurements were performed at 25° C. Anti-His antibody (His capture kit, GE Healthcare) was immobilized by amine coupling to Sensor Chip CM5. VLRB.aGPA.23 and Mut.10 were diluted to 10 μg/mL and injected in each cycle at 10 μL/min for 30 seconds, to capture approximately 300 RU. […] Regeneration of the anti-His surface was accomplished using a 60 second injection of 10 mM glycine-HCl pH 1.5. The reference subtracted SPR binding curves were blank subtracted, and curve fitting was performed with a 1:1 model to obtain kinetic parameters using the Biacore T200 Evaluation software.

[3] = target: T1, asialo-glycophorin A (aGPA); experiment: SPR (Biacore T200), lambody captured via anti-His mAb, aGPA as analyte
Experimental: as §1

Kd [1]: 1.1 nM
Kd [2]: 1.09 nM
koff [2]: 0.000331 s⁻¹
kon [2]: 303000 M⁻¹ s⁻¹
B1: lambody VLRB.aGPA.23 (as used in SPR) (other)
chain: ACPSQCSCSGTEVNCAGKSLASVPAGIPTTTRVLYLNSNQITKLEPGVFDRLANLRELHLWGNQLVSLPPGVFDNLANLEKLWLNSNQLTSLPAGLFDRLVNLEHLGLCCMKLTELPSGAFDKLTRLKQLGLDQNQLKSIPDGAFARLPSLTHVWLHTNPWDCQCTDILYLSGWVAQHSSIVGEGWPWRHSPDSAKCSGTNTPVRAVTEASTSPSKCP
notes: Dimeric, yeast-secreted lambody captured on the chip through an anti-His antibody; also called VLRB.GPA.23; not shown: 6-His and FLAG tags plus a dimerization domain

fold higher affinity than VLRB.aGPA.23 [3]: 1.7 fold
Kd [2]: 0.637 nM
koff [2]: 0.000222 s⁻¹
kon [2]: 349000 M⁻¹ s⁻¹
B2: Mut.10 (affinity-improved clone of VLRB.aGPA.23) (other)
chain: B1 chain with S19N, S86G, H105R, K112M, T208S
notes: also called clone Mut.10; not shown: 6-His and FLAG tags plus a dimerization domain
